# Results reported in patent US20190177417A1 (BIOATLA, published 2019).
# Residue numbers refer to the chain shown, from its start. Names and notes keep the numbering of the source.
# T1: Axl protein (human, UniProt P30530 26-451)
# T1 construct: extracellular domain; also called human Axl; hAxl
# T1 sequence (looked up): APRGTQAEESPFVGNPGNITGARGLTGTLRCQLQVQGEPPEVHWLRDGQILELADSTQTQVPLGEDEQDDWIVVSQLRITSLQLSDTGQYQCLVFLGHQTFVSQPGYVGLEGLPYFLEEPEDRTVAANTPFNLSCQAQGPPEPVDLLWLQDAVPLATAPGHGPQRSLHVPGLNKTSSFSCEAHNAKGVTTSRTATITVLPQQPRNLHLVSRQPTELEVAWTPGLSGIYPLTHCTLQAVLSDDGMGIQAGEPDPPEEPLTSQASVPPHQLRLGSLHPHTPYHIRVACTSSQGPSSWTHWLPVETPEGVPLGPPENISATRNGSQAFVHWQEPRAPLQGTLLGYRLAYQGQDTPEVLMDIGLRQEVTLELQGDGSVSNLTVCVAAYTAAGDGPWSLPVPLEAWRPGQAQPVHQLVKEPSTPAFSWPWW
# B1: HC-T030A (antibody, V domains shown)
# VH: EVQLVQSGAEVKKPGATVKISCKVSGYSFAGHTMNWIRQPPGKGLEWIGLIKPSNGGTSYNQKFKGRVTISADKSISTAYLQWSSLKASDTAMYYCAHGHYESYFAMDYWGQGTLVTVSS
# VL: DIQMTQSPSSLSASVGDRVTITCKASQDVSSAVAWYQQKPGQAPRLLIYWASTRHTGVPSRFSGSGSGTEFTLTISSLQPDDFATYYCQEHFSTPLTFGQGTKVEIK
# B2: HC-E102G (antibody, V domains shown)
# VH: B1 VH with A30T, E102G
# VL: B1 VL
# B3: HC-Y104P (antibody, V domains shown)
# VH: B1 VH with A30T, Y104P
# VL: B1 VL
# B4: HC-S103M (antibody, V domains shown)
# VH: B1 VH with A30T, S103M
# VL: B1 VL
# B5: HC-E102I (antibody, V domains shown)
# VH: B1 VH with A30T, E102I
# VL: B1 VL
# B6: HC-H100P (antibody, V domains shown)
# VH: B1 VH with A30T, H100P
# VL: B1 VL
# B7: HC-E102R (antibody, V domains shown)
# VH: B1 VH with A30T, E102R
# VL: B1 VL
# B8: HC-F105N (antibody, V domains shown)
# VH: B1 VH with A30T, F105N
# VL: B1 VL
# B9: HC-H100W (antibody, V domains shown)
# VH: B1 VH with A30T, H100W
# VL: B1 VL
# B10: HC-E102N (antibody, V domains shown)
# VH: B1 VH with A30T, E102N
# VL: B1 VL
# B11: HC-F105V (antibody, V domains shown)
# VH: B1 VH with A30T, F105V
# VL: B1 VL
# B12: HC-E102D (antibody, V domains shown)
# VH: B1 VH with A30T, E102D
# VL: B1 VL
# B13: HC-E102F (antibody, V domains shown)
# VH: B1 VH with A30T, E102F
# VL: B1 VL
# B14: HC-E102Y (antibody, V domains shown)
# VH: B1 VH with A30T, E102Y
# VL: B1 VL
# B15: HC-S103D (antibody, V domains shown)
# VH: B1 VH with A30T, S103D
# VL: B1 VL
# B16: HC-S059I (antibody, V domains shown)
# VH: B1 VH with A30T, S59I
# VL: B1 VL
# B17: HC-E102A (antibody, V domains shown)
# VH: B1 VH with A30T, E102A
# VL: B1 VL
# B18: HC-S059T (antibody, V domains shown)
# VH: B1 VH with A30T, S59T
# VL: B1 VL
# B19: HC-S103N (antibody, V domains shown)
# VH: B1 VH with A30T, S103N
# VL: B1 VL
# B20: HC-H100D (antibody, V domains shown)
# VH: B1 VH with A30T, H100D
# VL: B1 VL
# B21: HC-E102V (antibody, V domains shown)
# VH: B1 VH with A30T, E102V
# VL: B1 VL
# B22: HC-H100E (antibody, V domains shown)
# VH: B1 VH with A30T, H100E
# VL: B1 VL
# B23: HC-Y101N (antibody, V domains shown)
# VH: B1 VH with A30T, Y101N
# VL: B1 VL
# B24: HC-E102L (antibody, V domains shown)
# VH: B1 VH with A30T, E102L
# VL: B1 VL
# B25: HC-Y104E (antibody, V domains shown)
# VH: B1 VH with A30T, Y104E
# VL: B1 VL
# B26: HC-F105T (antibody, V domains shown)
# VH: B1 VH with A30T, F105T
# VL: B1 VL
# B27: HC-W110H (antibody, V domains shown)
# VH: B1 VH with A30T, W110H
# VL: B1 VL
# B28: HC-Y104C (antibody, V domains shown)
# VH: B1 VH with A30T, Y104C
# VL: B1 VL
# B29: HC-T033I (antibody, V domains shown)
# VH: B1 VH with A30T, T33I
# VL: B1 VL
# B30: HC-F105S (antibody, V domains shown)
# VH: B1 VH with A30T, F105S
# VL: B1 VL
# B31: HC-P053N (antibody, V domains shown)
# VH: B1 VH with A30T, P53N
# VL: B1 VL
# B32: HC-S103Q (antibody, V domains shown)
# VH: B1 VH with A30T, S103Q
# VL: B1 VL
# B33: HC-N035I (antibody, V domains shown)
# VH: B1 VH with A30T, N35I
# VL: B1 VL
# B34: HC-H100R (antibody, V domains shown)
# VH: B1 VH with A30T, H100R
# VL: B1 VL
# Target: T1, Axl protein
# Experiment: ELISA, 1:3 dilution, pH 6.0 over pH 7.4
row,"Affinity ELISA CPE mutant ratio (1:3, pH 6.0/7.4) [ratio]",Binder
1,1.29,B1
2,1.8,B2
3,2.54,B3
4,1.78,B4
5,2.02,B5
6,2.58,B6
7,3.7,B7
8,2.36,B8
9,4.94,B9
10,1.52,B10
11,2.43,B11
12,2.67,B12
13,1.88,B13
14,2.61,B14
15,4.24,B15
16,30.5,B16
17,1.54,B17

row,"Affinity ELISA CPE mutant ratio (1:3, pH 6.0/7.4) [ratio]",Binder
1,1.02,B18
2,1.07,B19
3,2.42,B20
4,1.93,B21
5,2.77,B22
6,2.17,B23
7,3.27,B24
8,1.32,B25
9,3.46,B26
10,7.99,B27
11,1.84,B28
12,1.59,B29
13,3.9,B30
14,1.4,B31
15,0.912,B32
16,2.81,B33
17,1.88,B34

# Target: T1, Axl protein
# Experiment: ELISA, 1:9 dilution, pH 6.0 over pH 7.4
row,"Affinity ELISA CPE mutant ratio (1:9, pH 6.0/7.4) [ratio]",Binder
1,1.76,B1
2,2.68,B2
3,2.42,B3
4,1.81,B4
5,1.7,B5
6,1.18,B6
7,3.42,B7
8,2.64,B8
9,5.91,B9
10,1.57,B10
11,2.8,B11
12,2.85,B12
13,1.36,B13
14,1.99,B14
15,2.23,B15
16,2.06,B16
17,1.69,B17

row,"Affinity ELISA CPE mutant ratio (1:9, pH 6.0/7.4) [ratio]",Binder
1,1.93,B18
2,3.18,B19
3,3.09,B20
4,2.51,B21
5,3.62,B22
6,2.91,B23
7,2.7,B24
8,1.8,B25
9,4.02,B26
10,0.932,B27
11,1.74,B28
12,1,B29
13,4.54,B30
14,1.89,B31
15,2.26,B32
16,1.12,B33
17,2.51,B34
